Data on 60 variants can be found in article PMC12057046 (2025).

The chains are these.
B1: GST-tagged USP8 MIT domain (1-142) [human] / Girdin 1192-1207 peptide, cellulose-bound (SPOT array) [human] (parent complex)
chain 1: MPAVASVPKELYLSSSLKDLNKKTEVKPEKISTKSYVHSALKIFKTAEECRLDRDEERAYVLYMKYVTVYNLIKKRPDFKQQQDYFHSILGPGNIKKAVEEAERLSESLKLRYEEAEVRKKLEEKDRQEEAQRLQQKRQETG
chain 2: EVEHRDLEDRYNQLLK
B2: GST-tagged USP8 MIT domain (1-142) [human] / DNAJB6 118-130 peptide, cellulose-bound (SPOT array) [not stated] (parent complex)
chain 1: B1 chain 1
chain 2: PFEDFFGNRRGPR
B3: GST-tagged USP8 MIT domain (1-142) [human] / DBP 116-131 peptide, cellulose-bound (SPOT array) [human] (parent complex)
chain 1: B1 chain 1
chain 2: YVDLDAFLLEHGLPPS
B4: GST-tagged USP8 MIT domain (1-142) [human] / Cadherin-1 863-877 peptide, cellulose-bound (SPOT array) [not stated] (parent complex)
chain 1: B1 chain 1
chain 2: NEWGNRFKKLADMYG

The variants in the first test derive from B1. Put plainly: SPOT array alanine scanning; read off a plot.
On to chain 2 R5A, for which the screen value is about 48%.

With chain 2 N12A, the screen value is about -37%.

On to chain 2 K16A, for which the screen value was about 120%.

chain 2 E1A: the screen value is about 50%.

Turning to chain 2 D9A, the screen value was about 58%.

For the variant chain 2 R10A, the screen value was about -92%.

With chain 2 E8A, the screen value is about -72%.

As to chain 2 D6A, the screen value is about 40%.

For the variant chain 2 H4A, the screen value was about 65%.

With chain 2 Q13A, the screen value is about 28%.

Regarding chain 2 V2A, the screen value is about 69%.

chain 2 L15A: the screen value is about -81%.

Consider chain 2 E3A, for which the screen value is about 80%.

With chain 2 L7A, the screen value is about -100%.

As for chain 2 Y11A, the screen value was about -100%.

In the case of chain 2 L14A, the screen value is about -94%.

In another test the parent is B2. Put plainly: SPOT array alanine scanning; read off a plot.
As to chain 2 G11A, the screen value is about -39%.

Consider chain 2 F5A, for which the screen value was about -63%.

On to chain 2 R13A, for which the screen value was about 20%.

As to chain 2 P1A, the screen value was about 30%.

With chain 2 D4A, the screen value was about -88%.

Regarding chain 2 R10A, the screen value is about -29%.

As to chain 2 P12A, the screen value was about -17%.

Regarding chain 2 F6A, the screen value is about -67%.

On to chain 2 E3A, for which the screen value is about -46%.

Turning to chain 2 F2A, the screen value is about 10%.

As to chain 2 G7A, the screen value was about -40%.

As for chain 2 R9A, the screen value was about -19%.

Consider chain 2 N8A, for which the screen value is about -48%.

Variants of B3 are the subject of another test. Put plainly: SPOT array alanine scanning; read off a plot.
As for chain 2 D3A, the screen value was about -84%.

As for chain 2 P15A, the screen value was about 19%.

With chain 2 Y1A, the screen value was about 110%.

Consider chain 2 D5A, for which the screen value is about -100%.

As to chain 2 L9A, the screen value is about 98%.

chain 2 L13A: the screen value is about -22%.

For the variant chain 2 G12A, the screen value is about -87%.

On to chain 2 A6G, for which the screen value was about -38%.

Turning to chain 2 V2A, the screen value is about 98%.

Consider chain 2 L8A, for which the screen value is about -20%.

With chain 2 S16A, the screen value was about 12%.

With chain 2 L4A, the screen value was about -52%.

Turning to chain 2 E10A, the screen value is about -94%.

Consider chain 2 F7A, for which the screen value is about -72%.

Regarding chain 2 P14A, the screen value is about -5%.

Turning to chain 2 H11A, the screen value is about -79%.

The variants in another test derive from B4. Put plainly: SPOT array alanine scanning; read off a plot.
In the case of chain 2 E2A, the screen value was about -57%.

Turning to chain 2 M13A, the screen value was about -22%.

On to chain 2 R6A, for which the screen value was about -98%.

Consider chain 2 G4A, for which the screen value is about -39%.

Turning to chain 2 K8A, the screen value is about -65%.

As to chain 2 D12A, the screen value was about -56%.

On to chain 2 N1A, for which the screen value is about -9%.

Turning to chain 2 L10A, the screen value was about -62%.

In the case of chain 2 K9A, the screen value was about -70%.

Regarding chain 2 A11G, the screen value was about -32%.

Regarding chain 2 N5A, the screen value was about -34%.

Take chain 2 G15A: the screen value was about -57%.

In the case of chain 2 F7A, the screen value was about -100%.

As to chain 2 Y14A, the screen value was about -44%.

For the variant chain 2 W3A, the screen value was about -100%.
